Measured values taken from patent US20250215095.

T1: internally quenched peptide probe with CM PWGLAGRS (SEQ ID NO: 690)
T1 chain: SPWGLAGRSGKR

T2: internally quenched peptide probe with CM WGLSGRS (SEQ ID NO: 685)
T2 chain: GSWGLSGRSGKR

T3: internally quenched peptide probe with CM AWGLSGRS (SEQ ID NO: 686)
T3 chain: SAWGLSGRSGKR

T4: internally quenched peptide probe with CM LSGRSPAGL (SEQ ID NO: 694)
T4 chain: SLSGRSPAGLGKR

T5: internally quenched peptide probe with CM LSGKSPWGL (SEQ ID NO: 178)
T5 chain: SLSGKSPWGLGKR

T6: internally quenched peptide probe with CM PWGLSGR (SEQ ID NO: 163)
T6 chain: SPWGLSGRGSKR

T7: internally quenched peptide probe with CM PWGLSGRS (SEQ ID NO: 12)
T7 chain: SPWGLSGRSGKR

T8: internally quenched peptide probe with CM LSGRSPWGL (SEQ ID NO: 177)
T8 chain: SLSGRSPWGLGKR

T9: internally quenched peptide probe with CM PWGLSARS (SEQ ID NO: 691)
T9 chain: SPWGLSARSGKR

T10: internally quenched peptide probe with CM PWGLSGAS (SEQ ID NO: 692)
T10 chain: SPWGLSGASGKR

T11: internally quenched peptide probe with CM PAGLSGRS (SEQ ID NO: 687)
T11 chain: SPAGLSGRSGKR

T12: internally quenched peptide probe with CM PWGLSG (SEQ ID NO: 684)
T12 chain: SPWGLSGGGSKR

T13: internally quenched peptide probe with CM PWGLSGKS (SEQ ID NO: 150)
T13 chain: SPWGLSGKSGKR

T14: internally quenched peptide probe with CM PWGASGRS (SEQ ID NO: 689)
T14 chain: SPWGASGRSGKR

T15: internally quenched peptide probe with CM PWALSGRS (SEQ ID NO: 688)
T15 chain: SPWALSGRSGKR

T16: internally quenched peptide probe with CM PWGLSGRA (SEQ ID NO: 693)
T16 chain: SPWGLSGRAGKR

B1: membrane type serine protease 1 (MT-SP1) (protein)
chain: VVGGTDADEGEWPWQVSLHALGQGHICGASLISPNWLVSAAHCYIDDRGFRYSDPTQWTAFLGLHDQSQRSAPGVQERRLKRIISHPFFNDFTFDYDIALLELEKPAEYSSMVRPICLPDASHVFPAGKAIWVTGWGHTQYGGTGALILQKGEIRVINQTTCENLLPQQITPRMMCVGFLSGGVDSCQGDSGGPLSSVEADGRIFQAGVVSWGDGCAQRNKPGVYTRLPLFRDWIKENTGV
B2: matrix metalloprotease 2 (MMP2) (protein)
chain: YNFFPRKPKWDKNQITYRIIGYTPDLDPETVDDAFARAFQVWSDVTPLRFSRIHDGEADIMINFGRWEHGDGYPFDGKDGLLAHAFAPGTGVGGDSHFDDDELWTLGEGQVVRVKYGNADGEYCKFPFLFNGKEYNSCTDTGRSDGFLWCSTTYNFEKDGKYGFCPHEALFTMGGNAEGQPCKFPFRFQGTSYDSCTTEGRTDGYRWCGTTEDYDRDKKYGFCPETAMSTVGGNSEGAPCVFPFTFLGNKYESCTSAGRSDGKMWCATTANYDDDRKWGFCPDQGYSLFLVAAHEFGHAMGLEHSQDPGALMAPIYTYTKNFRLSQDDIKGIQELYGASPDIDLGTGPTPTLGPVTPEICKQDIVFDGIAQIRGEIFFFKDRFIWRTVTPRDKPMGPLLVATFWPELPEKIDAVYEAPQEEKAVFFAGNEYWIYSASTLERGYPKPLTSLGLPPDVQRVDAAFNWSKNKKTYIFAGDKFWRYNEVKKKMDPGFPKLIADAWNAIPDNLDAVVDLQGGGHSYFFKGAYYLKLENQSLKSVKFGSIKSDWLGC

Assays:
[1] = target: T1, internally quenched peptide probe with …
[2] = target: T2, internally quenched peptide probe with …
[3] = target: T3, internally quenched peptide probe with …
[4] = target: T4, internally quenched peptide probe with …
[5] = target: T5, internally quenched peptide probe with …
[6] = target: T6, internally quenched peptide probe with …
[7] = target: T7, internally quenched peptide probe with …
[8] = target: T8, internally quenched peptide probe with …
[9] = target: internally quenched peptide probe with CM RSPWGL (SEQ ID NO: 90)
[10] = target: internally quenched peptide probe with CM PWGLRS (SEQ ID NO: 48)
[11] = target: T9, internally quenched peptide probe with …
[12] = target: T10, internally quenched peptide probe with …
[13] = target: T11, internally quenched peptide probe with …
[14] = target: T12, internally quenched peptide probe with …
[15] = target: T13, internally quenched peptide probe with …
[16] = target: T14, internally quenched peptide probe with …
[17] = target: T15, internally quenched peptide probe with …
[18] = target: T16, internally quenched peptide probe with …

| Protein | Probe Cleavage (pM/s) [1] | Probe Cleavage (pM/s) [2] | Probe Cleavage (pM/s) [3] | Probe Cleavage (pM/s) [4] | Probe Cleavage (pM/s) [5] | Probe Cleavage (pM/s) [6] | Probe Cleavage (kcat/KM (M^-1 s^-1)) [7] | Probe Cleavage (pM/s) [7] | Probe Cleavage (pM/s) [8] | Probe Cleavage (kcat/KM (M^-1 s^-1)) [9] | Probe Cleavage (pM/s) [9] | Probe Cleavage (kcat/KM (M^-1 s^-1)) [10] | Probe Cleavage (pM/s) [10] | Probe Cleavage (pM/s) [11] | Probe Cleavage (pM/s) [12] | Probe Cleavage (pM/s) [13] | Probe Cleavage (pM/s) [14] | Probe Cleavage (kcat/KM (M^-1 s^-1)) [15] | Probe Cleavage (pM/s) [15] | Probe Cleavage (pM/s) [16] | further results |
| --- | --- | --- | --- | --- | --- | --- | --- | --- | --- | --- | --- | --- | --- | --- | --- | --- | --- | --- | --- | --- | --- |
| B1 | 15800 pM/s | 10600 pM/s | 17000 pM/s | 1520 pM/s | 595 pM/s | 1290 pM/s | 150000 M⁻¹ s⁻¹ | 7810 pM/s | 812 pM/s | 48000 M⁻¹ s⁻¹ | 2390 pM/s | 31000 M⁻¹ s⁻¹ | 1230 pM/s | 13100 pM/s | 13 pM/s | 16500 pM/s | 5.1 pM/s | 80000 M⁻¹ s⁻¹ | 2330 pM/s | 18000 pM/s | Probe Cleavage (pM/s) [17]: 15300 pM/s; Probe Cleavage (pM/s) [18]: 7620 pM/s |
| B2 | 4870 pM/s | 66.4 pM/s | 816 pM/s | 2080 pM/s | 37.1 pM/s | 6540 pM/s | 78000 M⁻¹ s⁻¹ | 2920 pM/s | 48.9 pM/s | 260000 M⁻¹ s⁻¹ | 11700 pM/s | 140000 M⁻¹ s⁻¹ | 3800 pM/s | 9580 pM/s | 4370 pM/s | Above the limit of quantification | 3100 pM/s | 59000 M⁻¹ s⁻¹ | 1620 pM/s | 202 pM/s | Probe Cleavage (pM/s) [17]: 4890 pM/s; Probe Cleavage (pM/s) [18]: 6100 pM/s |
